One data set concerns FtsZ. The note with it: 1.25 µM FtsZ, FtsA 0.1–0.8 µM. The method, then:
Additionally, the reaction chamber contained 4 mM ATP and 4 mM GTP, as well as a scavenging system to minimize photobleaching effects: 30 mM d-glucose, 0.050 mg ml^−1 Glucose Oxidase, 0.016 mg ml^−1 Catalase, 1 mM DTT and 1 mM Trolox. Prior addition of all components a corresponding buffer volume was removed from the chamber to obtain a total reaction volume of 100 µl. The dynamic protein pattern was monitored by time-lapse TIRF microscopy at one frame per 2 s and 50 ms exposure time.
Treadmilling dynamics, were quantified using an automated image analysis protocol previously developed by our group. To visualize colocalization of the co-treadmilling FtsZ & FtsA filaments, we used dual-colour videos obtained at an acquisition rate of one frame per 2 s. The two channels were aligned using FIJI’s 3TP align plugin. Both channels were then subjected to the image subtraction protocol and colocalization was measured as described above.

A short description of data set [1]: SEC-MALS oligomeric state of FtsA in solution. In kind it is physicochemical. The method, then:
Light scattering was recorded on a miniDAWN light scattering device (Wyatt). Changes in the refractive index were used to define the peak area, which was used to obtain the molecular mass. The analysis of the data was performed with the ASTRA software (Wyatt).

These results are taken from publication PMC9098913, “In vitro reconstitution of Escherichia coli divisome activation” (Nature Communications, 2022).

“FtsA WT: wild-type E. coli actin-homologue FtsA, membrane anchor of FtsZ”: the “effect on FtsZ treadmilling velocity” value in the data set with FtsZ was “could not observe a significant effect”. Further, the “oligomeric state in solution” value in data set [1] was “monomeric in solution”.

B1: FtsA R286W (protein)
chain: MIKATDRKLVVGLEIGTAKVAALVGEVLPDGMVNIIGVGSCPSRGMDKGGVNDLESVVKCVQRAIDQAELMADCQISSVYLALSGKHISCQNEIGMVPISEEEVTQEDVENVVHTAKSVRVRDEHRVLHVIPQEYAIDYQEGIKNPVGLSGVRMQAKVHLITCHNDMAKNIVKAVERCGLKVDQLIFAGLASSYSVLTEDERELGVCVVDIGGGTMDIAVYTGGALRHTKVIPYAGNVVTSDIAYAFGTPPSDAEAIKVRHGCALGSIVGKDESVEVPSVGGRPPWSLQRQTLAEVIEPRYTELLNLVNEEILQLQEKLRQQGVKHHLAAGIVLTGGAAQIEGLAACAQRVFHTQVRIGAPLNITGLTDYAQEPYYSTAVGLLHYGKESHLNGEAEVEKRVTASVGSWIKRLNSWLRKEF
modifications: Cy3 or Cy5 at the N-terminus in the labelled form (labelled CLEPTGG peptide conjugated to the 5xGly tag by sortagging); unlabelled protein also used; left off: TwinStrep-SUMO, N-terminal, cleaved | 5x
With B1, in the data set with FtsZ, the “effect on FtsZ treadmilling velocity” value is recorded as “could not detect a difference”. The “oligomeric state in solution” value in data set [1] is “monomeric in solution”.
